Measured values published in patent publication US20240327522A1 (Genentech, published 2024).

Biological target: T1, human αvβ6 (human, UniProt P06756 31-992; P18564 22-709)
T1 construct: Counter-screen integrin; construct not described; also called hu.aVb6; αV06
Test: SPR binding assay, sample hu.aVb1,3,5,6

T1 sequence (P18564 22-709 limits assumed, one chain of several): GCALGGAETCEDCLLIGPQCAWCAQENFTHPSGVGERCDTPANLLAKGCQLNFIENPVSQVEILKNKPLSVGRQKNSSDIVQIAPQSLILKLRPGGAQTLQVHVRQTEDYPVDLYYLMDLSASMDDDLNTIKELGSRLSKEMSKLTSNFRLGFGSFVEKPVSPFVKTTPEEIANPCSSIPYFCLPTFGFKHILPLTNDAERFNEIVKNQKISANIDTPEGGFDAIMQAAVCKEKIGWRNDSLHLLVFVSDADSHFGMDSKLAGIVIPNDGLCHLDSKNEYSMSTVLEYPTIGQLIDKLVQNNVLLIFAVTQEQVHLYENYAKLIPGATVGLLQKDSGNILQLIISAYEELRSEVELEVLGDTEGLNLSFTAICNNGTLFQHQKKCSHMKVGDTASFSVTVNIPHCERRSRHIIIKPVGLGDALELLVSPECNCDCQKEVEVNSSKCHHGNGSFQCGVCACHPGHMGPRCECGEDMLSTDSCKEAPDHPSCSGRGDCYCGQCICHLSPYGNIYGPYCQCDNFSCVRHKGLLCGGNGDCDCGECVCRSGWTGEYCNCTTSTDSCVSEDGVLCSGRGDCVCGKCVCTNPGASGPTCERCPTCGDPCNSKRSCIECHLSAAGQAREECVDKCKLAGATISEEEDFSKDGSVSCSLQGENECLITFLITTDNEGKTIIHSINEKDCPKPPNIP

binding result: no binding
B1: Hu.aVb8-65.H15L2 (aVb8-65.H15L2.hIgG1.LALAPG) (antibody, V domains shown)
VH: EVQLLESGGGLVQPGGSLRLSCAASGIDLSNYAMIWVRQAPGKGLEWVGIISSSDRIWYASWVKGRFTISRDNSKNTLYLQMNSLRAEDTAVYYCSRSVSNSYFDGWNLWGQGTLVTVSS
VL: DIQMTQSPSSVSASVGDRVTITCQASENINSLLAWYQQKPGKAPKLLIYRASTLASGVPSRFSGSGSGTDFTLTISSLQPEDFATYYCQSNYGFTGSGAFFYGFGQGTKVEIKR
notes: Human IgG1 LALAPG; also called PARS-20475-65 (IH) aVb8-65.H15L2.hIgG1.LALAPG; humanized αvβ8-65
